Key:
cyno FcγRIIb = target: T1, cyno FcγRIIb (cynomolgus monkey); assay: SPR (Biacore T200), antibody captured on Protein L, FcγR at 1000 nM, pH7.4, 25 C
T1 construct: also called cyFcyRIIb; not shown: C-terminal His-tag
T1 chain: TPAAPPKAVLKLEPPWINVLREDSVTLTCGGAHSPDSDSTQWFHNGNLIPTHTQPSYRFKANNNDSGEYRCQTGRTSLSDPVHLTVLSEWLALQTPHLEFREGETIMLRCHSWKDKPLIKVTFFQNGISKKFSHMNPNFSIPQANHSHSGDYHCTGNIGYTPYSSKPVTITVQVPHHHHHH
Experimental: (§1) Analysis of interaction between antibody and the FcγR prepared as mentioned above was carried out using BIACORE (registered trademark) T200 (GE Healthcare). 150 mMN Sodium chloride and 0.05 w/v % Tween-20 containing 50 mM phosphate buffer (pH7.4) was used as running buffer, and the measurement temperature was set to 25 degrees C. Chip produced by immobilizing Protein L (BioVision) by the amine coupling method to a Series S sensor Chip CM4 (GE Healthcare) was used. After capturing 500 or 1000 resonance unit (RU) of antibodies of interest onto the chip, FcγRs diluted with the running buffer were allowed to interact, and their binding amounts to antibodies were measured. Cyno FcγRIa was diluted to 8 nM, and others were diluted to 1000 nM. Then, antibodies captured onto the chip were washed by 10 mM Glycine-HC, pH1.5, and the chip was regenerated and used repeatedly. The binding amounts of FcγRs were divided by the binding amount of each antibody captured to obtain binding activity using biacore evaluation software, and these values were compared. Furthermore, the relative values of binding activity of COS0098pHv1-SG1077R to each FcγR to COS0098pHv1-SG1 (an antibody having the sequence of a naturally-occurring human IgG1 at positions 234 to 239, 265 to 271, 295, 296, 298, 300, and 324 to 337, according to EU numbering) were calculated.

cyno FcγRIIa1 = target: T2, cyno FcγRIIa1 (cynomolgus monkey); assay: as above
T2 construct: also called cyFcyRIIa1; not shown: C-terminal His-tag
T2 chain: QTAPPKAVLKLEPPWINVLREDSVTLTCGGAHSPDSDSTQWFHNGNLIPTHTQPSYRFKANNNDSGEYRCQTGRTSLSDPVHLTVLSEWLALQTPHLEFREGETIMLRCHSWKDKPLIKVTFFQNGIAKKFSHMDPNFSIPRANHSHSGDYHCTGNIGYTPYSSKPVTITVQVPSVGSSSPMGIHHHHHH
Experimental: as §1

cyno FcγRIIa2 = target: T3, cyno FcγRIIa2 (cynomolgus monkey); assay: as above
T3 construct: also called cyFcyRIIa2; not shown: C-terminal His-tag
T3 chain: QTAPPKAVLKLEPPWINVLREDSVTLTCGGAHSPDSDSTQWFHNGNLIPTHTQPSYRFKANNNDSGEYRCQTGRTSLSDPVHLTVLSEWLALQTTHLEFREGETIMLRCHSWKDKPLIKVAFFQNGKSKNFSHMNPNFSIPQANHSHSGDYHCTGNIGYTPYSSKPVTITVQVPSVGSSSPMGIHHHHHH
Experimental: as §1

cyno FcγRIIa3 = target: T4, cyno FcγRIIa3 (cynomolgus monkey); assay: as above
T4 construct: not shown: C-terminal His-tag
T4 chain: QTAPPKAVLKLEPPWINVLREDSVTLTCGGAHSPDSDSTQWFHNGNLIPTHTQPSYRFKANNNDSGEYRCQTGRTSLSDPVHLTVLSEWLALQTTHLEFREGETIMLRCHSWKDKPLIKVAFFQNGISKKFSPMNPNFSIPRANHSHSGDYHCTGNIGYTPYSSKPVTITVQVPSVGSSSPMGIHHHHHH
Experimental: as §1

cyno FcγRIIIa(R) = target: T5, cyno FcγRIIIa(R) (cynomolgus monkey, UniProt Q8SPW2 17-208); assay: as above
T5 construct: also called cyFcyRIIIa(R); not shown: C-terminal His-tag
T5 sequence (Q8SPW2 other isoform, or with tags, fused parts or gaps): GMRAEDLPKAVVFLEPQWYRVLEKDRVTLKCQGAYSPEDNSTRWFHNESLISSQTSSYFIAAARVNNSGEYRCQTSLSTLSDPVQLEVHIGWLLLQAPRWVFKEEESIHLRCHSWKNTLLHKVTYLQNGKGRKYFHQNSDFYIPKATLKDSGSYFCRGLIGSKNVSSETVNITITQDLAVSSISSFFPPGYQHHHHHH
Experimental: as §1

cyno FcγRIIIa(S) = target: T6, cyno FcγRIIIa(S) (cynomolgus monkey, UniProt Q8SPW2 21-206 at identity 1.00)); assay: as above
T6 construct: also called cyFcyRIIIa(S); not shown: C-terminal His-tag
T6 chain: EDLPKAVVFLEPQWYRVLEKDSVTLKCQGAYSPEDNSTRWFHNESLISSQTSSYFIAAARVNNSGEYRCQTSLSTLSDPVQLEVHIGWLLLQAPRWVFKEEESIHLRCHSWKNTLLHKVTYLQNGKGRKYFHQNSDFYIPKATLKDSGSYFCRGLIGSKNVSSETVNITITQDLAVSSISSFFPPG
Experimental: as §1

[1] = target: T7, cyno FcRn complexed with β2-microglobulin (cynomolgus monkey, UniProt Q8SPV9 24-290; Q8SPW0 21-119); assay: SPR (Biacore T200), antibody captured on Protein L, cyno FcRn 0-240 nM as analyte, steady-state analysis, pH6.0, 25 C
T7 construct: also called cynomolgous monkey neonatal Fc receptor
T7 sequence (Q8SPV9 24-290 limits assumed, chain 1 of 2): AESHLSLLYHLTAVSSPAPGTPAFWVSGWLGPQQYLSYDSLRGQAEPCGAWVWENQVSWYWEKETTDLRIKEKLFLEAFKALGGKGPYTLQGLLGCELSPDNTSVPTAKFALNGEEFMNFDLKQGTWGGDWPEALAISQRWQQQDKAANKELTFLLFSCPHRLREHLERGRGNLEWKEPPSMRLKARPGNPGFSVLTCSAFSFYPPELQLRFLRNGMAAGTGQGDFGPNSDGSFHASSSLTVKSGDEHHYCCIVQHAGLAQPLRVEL
T7 sequence (Q8SPW0 21-119 limits assumed, chain 2 of 2): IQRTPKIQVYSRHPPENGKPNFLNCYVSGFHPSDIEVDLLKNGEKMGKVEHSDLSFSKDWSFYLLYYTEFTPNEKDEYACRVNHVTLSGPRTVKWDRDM
Experimental: Analysis of interaction between each antibody and the FcRn prepared as mentioned above was carried out using BIACORE (registered trademark) T200 (GE Healthcare). Buffer solution containing 150 mM sodium chloride, 0.05 w/v % Tween-20, 50 mM phosphate buffer (pH6.0) was used as running buffer, and the measurement temperature was set to 25 degrees C. Series S sensor Chip CM4 (GE Healthcare) onto which Protein L (BioVision) had been immobilized by the amine coupling method was used. After capturing 400 resonance unit (RU) of antibodies of interest onto the chip via the Protein L, FcRn diluted with the running buffer was allowed to interact, then the KD values were calculated. COS0098pHv1-SG1 was evaluated with 0, 250, 500, 1000, 2000, 4000 nM cyno FcRn, and COS0098pHv1-SG1077R was evaluated with 0, 15, 30, 60, 120, 240 nM cyno FcRn. Then, the chip capturing each antibody was washed by 10 mM Glycine-HCl, pH1.5, regenerated and used repeatedly. The equilibrium dissociation constant (KD (M)) for cyno FcRn was calculated for each antibody based on the steady-state analysis. The Biacore T200 Evaluation Software (GE Healthcare) was used to calculate each parameter.

cyno FcγRIa = target: T8, cyno FcγRIa (cynomolgus monkey, UniProt P12314 16-288 (human entry)); assay: SPR (Biacore T200), antibody captured on Protein L, FcγRIa at 8 nM, pH7.4, 25 C
T8 construct: also called cyFcyRIa; cynomolgus monkey Fc gamma receptor Ia; not shown: C-terminal His-tag
T8 chain: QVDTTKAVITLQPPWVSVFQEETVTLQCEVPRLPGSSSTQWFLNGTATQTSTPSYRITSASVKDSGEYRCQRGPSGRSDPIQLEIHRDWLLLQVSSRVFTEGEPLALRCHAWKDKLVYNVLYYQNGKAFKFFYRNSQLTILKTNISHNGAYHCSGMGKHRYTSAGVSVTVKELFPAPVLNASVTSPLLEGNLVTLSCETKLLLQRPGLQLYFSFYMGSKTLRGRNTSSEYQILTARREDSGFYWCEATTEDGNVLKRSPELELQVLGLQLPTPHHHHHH
Experimental: as §1

- Binding activity value (Binding amount per 1 RU antibody) (cyno FcγRIIb): 0.082 RU per 1 RU antibody
- Relative value of binding activity (cyno FcγRIIb): 2.86 fold, relative to COS0098pHv1-SG1
- Binding activity value (Binding amount per 1 RU antibody) (cyno FcγRIIa1): 0.0436 RU per 1 RU antibody
- Relative value of binding activity (cyno FcγRIIa1): 2.23 fold, relative to COS0098pHv1-SG1
- Binding activity value (Binding amount per 1 RU antibody) (cyno FcγRIIa2): 0.0425 RU per 1 RU antibody
- Relative value of binding activity (cyno FcγRIIa2): 2.51 fold, relative to COS0098pHv1-SG1
- Binding activity value (Binding amount per 1 RU antibody) (cyno FcγRIIa3): 0.025 RU per 1 RU antibody
- Relative value of binding activity (cyno FcγRIIa3): 3.96 fold, relative to COS0098pHv1-SG1
- Binding activity value (Binding amount per 1 RU antibody) (cyno FcγRIIIa(R)): 0.006 RU per 1 RU antibody
- Relative value of binding activity (cyno FcγRIIIa(R)): 0.05 fold, relative to COS0098pHv1-SG1
- Binding activity value (Binding amount per 1 RU antibody) (cyno FcγRIIIa(S)): 0.0084 RU per 1 RU antibody
- Relative value of binding activity (cyno FcγRIIIa(S)): 0.07 fold, relative to COS0098pHv1-SG1
- Kd [1]: 70 nM
- Relative value of binding activity (cyno FcγRIa): 0.06 fold, relative to COS0098pHv1-SG1
B1: COS0098pHv1-SG1077R (antibody)
heavy: QVQLVQSGAEVKKPGSSVKVSCKASGHTFSKYTVSWIRQPPGKGLEWIGIINTGGSAYPATWAKGRVTITADESTSTAYMELSSLRSEDTAVYYCARGAGDTDYTNLWGQGTLVTVSSASTKGPSVFPLAPSSKSTSGGTAALGCLVKDYFPEPVTVSWNSGALTSGVHTFPAVLQSSGLYSLSSVVTVPSSSLGTQTYICNVNHKPSNTKVDKRVEPKSCDKTHTCPPCPAPELWNGPSVFLFPPKPKDTLMISRTPEVTCVVVDVSDEDPEVKFNWYVDGVEVHNAKTKPREELYNSTYRVVSVLTVLHRDWLNGKEYKCKVSNTALPKPIEKTISKAKGQRREPQVYTLPPSREEMTKNQVSLTCLVKGFYPSDIAVEWESNGQPENNYKTTPPVLDSDGSFFLYSKLTVDKSRWQQGNVFSCSVLHEALHAHTTRKELSLSP
light: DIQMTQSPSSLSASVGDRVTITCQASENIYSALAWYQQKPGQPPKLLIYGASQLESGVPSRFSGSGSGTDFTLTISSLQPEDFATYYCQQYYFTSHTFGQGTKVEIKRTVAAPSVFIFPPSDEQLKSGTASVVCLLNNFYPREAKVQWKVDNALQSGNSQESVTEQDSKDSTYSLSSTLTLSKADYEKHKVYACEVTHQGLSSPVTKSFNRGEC
notes: also called COS009pHv1-SG1077R; COS009BpHv1-SG1077R
